# According to the supplement of paper PMC9170038:
# Test system: MS2 coat protein
# Assay: apparent KD of MS2 coat protein; designed switch direction (-1 OFF switch, 1 ON switch): 1; higher = weaker reporter binding
# Summary of the method: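 The reported apparent KD is a per-design median over clusters, from curve fits of normalised cluster fluorescence. Protein titrations used SNAP-549-labelled MS2 coat protein, doubled from 0.7 or 1.5 nM to 3 µM, in Tris-HCl pH 7.5 buffer with KCl, MgCl2, BSA, DTT, tRNA and Tween-20, with no input, 200 uM small-molecule ligand, or an oligonucleotide input. The RNA switches were transcribed on Illumina chips by stalled E. coli RNA polymerase.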
# [1] = input ligand: microRNA oligo, concentration not stated
# [2] = Eterna round: R95, input ligand: FMN 200 uM
# [3] = Eterna round: R95, input ligand: microRNA oligo, concentration not stated
# [4] = Eterna round: R95, input ligand: none
Sequence,apparent KD of MS2 coat protein (input ligand: FMN 200 uM) [nM],apparent KD of MS2 coat protein [1] [nM],apparent KD of MS2 coat protein (input ligand: none) [nM],apparent KD of MS2 coat protein [2] [nM],apparent KD of MS2 coat protein [3] [nM],apparent KD of MS2 coat protein [4] [nM]
"AUUGCUUACGCAGGAUAUGAUGCGAAAAUUGCGUCAGAAGGGUGAAGUAACUCAUUGCAACAGGACAUGAGGAUCACCCAUGUC [SameState NG1 #89] (Eterna round: R96, puzzle: Same State NG 1)",105,250,681,,,
"AUUGGGUAACGAGGAUAUCGUUUUUGUUUUCUUCGAGAAGGCGUUAUAGUUUAUUUCUAUUGUUACAUGAGGAUCACCCAUGUU [JR_SSNG1_Sub054] (Eterna round: R96, puzzle: Same State NG 1)",15.2,16.5,24.1,,,
AUUUAACAAGCUUUUUGCUCGUCUUAUAAACAUGAGGAUCACCCAUGUAAUAGCGUGAGAGUAAAUUUAUAAAUAAU [JMF 88] (puzzle: Sensor for hsa-mir-208a),,,,15.7,42.5,14.7
"AUUUCUAGCAUAGGAUAUCAUGCGAAAAUUGCGUGAGAAGGGUGGACGCUGUCAUUCACGGAAGACAUGAGGAUCACCCAUGUC [SameState NG1 #75] (Eterna round: R96, puzzle: Same State NG 1)",76.6,67.6,87.2,,,
"AUUUUUAAUGCAGGAUAUGAUUAACAUGAGGAUCACCCAUGUGGUGUUGUGAGUAAGGAGAGUGAUCAGAAGGGCAUUUCUUUU [JMF's solution 82] (Eterna round: R96, puzzle: Same State NG 2)",593,337,540,,,
"CAGAGCCCAUGGGCCUGACAUGAGGAUCACCCAUGUGGCUUUGAGGAUAUAAGCGGAAACAGCGCUUAGAAGGCGAAGCCUAAC [Rearisve] (Eterna round: R96, puzzle: Same State NG 3)",157,14.1,41.9,,,
CAGCGCUGUCGAGAGGAUAUGCGGUGAUGGACAUGAGGAUCACCCAUGUUAGCGACAGCAUCACGGCAGAAGGCUCUAUCGCUGC [Soteed Omei mod 29] (puzzle: Same State 2),,,,24.2,39.5,48.9
"CAGCUCGUGUGAGGAUAUGCCGCCGUUUCGGCUGCAGAAGGUGCUACGUUACAUGAGGAUCACCCAUGUCUCUGUUGUUUCGUC [salish99_SSNG1_r04_962] (Eterna round: R96, puzzle: Same State NG 1)",28.6,19.1,31.8,,,
CAGUGCUGUUGAGAGGAUAUGCGGCGACGGACAUGAGGAUCACCCAUGUUAGCGACAGCGUUGCGGCAGAAGGCUCUGCCCGCUG [Soteed Omei mod 50] (puzzle: Same State 2),,,,,15.3,
"CCAUAACAGUGAGGAUAUCGUUGCGAUAAGUGACGAGAAGGCAUUCAUGUGAAAUAAACAUACAUGAGGAUCACCCAUGUUGUA [Omei SS(NG)1 B] (Eterna round: R96, puzzle: Same State NG 1)",18.2,17.1,20.6,,,
"CCGGUUAAUGGAGGAUAUGGAGCCUUAUUGGCUCCAGAAGGCUAAACAUGAGGAUCACCCAUGUUACCGGCGGUCAAUAGACCG [Eli NG1ss - 61] (Eterna round: R96, puzzle: Same State NG 1)",11.5,18,23,,,
CCGUAGAUGGGACAGGAUAUGACUGUCGUCACAUGAGGAUCACCCAUGUCCCGGCAAUGCCACCGUUAGAAGGGUCCCGUCUCGG [Tiquiser] (puzzle: Same State 2),,,,,12.2,
CGACUAAAGUCACAGGAUAUACGCCGUACUACAUGAGGAUCACCCAUGUUCGGGACAGUCGCGGUGUAGAAGGGUGUGGGUCAAC [Errabeed] (puzzle: Same State 2),,,,17.6,31.2,38.9
"CGCAACGGCUGAGGAUAUGUCAACACGGGACGGGCAGAAGGUAGCAACCACCCACAUGAGGAUCACCCAUGUAUCCAAAUUCAC [Eternabot solution 38] (Eterna round: R96, puzzle: Same State NG 1)",48.9,41.5,42.3,,,
"CGCCAGAGAGCAGGAUAUGGGCCACAGCCUAAGGGCUGUGAACUCACAUGAGGAUCACCCAUGUCCCAGAAGGGCUCCUAGCUA [Erzabe] (Eterna round: R96, puzzle: Same State NG 2)",203,701,1920,,,
CGGCGCUGUCGAGAGGAUAUGCGGUGAUGGACAUGAGGAUCACCCAUGUUAGCGAUAGCAUCACGGUAGAAGGCUCCACAGCCGU [Soteed Omei mod 13] (puzzle: Same State 2),,,,,23,

Sequence,apparent KD of MS2 coat protein (input ligand: FMN 200 uM) [nM],apparent KD of MS2 coat protein [1] [nM],apparent KD of MS2 coat protein (input ligand: none) [nM],apparent KD of MS2 coat protein [2] [nM],apparent KD of MS2 coat protein [3] [nM],apparent KD of MS2 coat protein [4] [nM]
"CGGCUCCGUGGAGGAUAUGGGCCUGCCCGGGAUACCGGGCCUAACACAUGAGGAUCACCCAUGUCCCAGAAGGCCGCUGGAGCC [Cebeladi] (Eterna round: R96, puzzle: Same State NG 2)",12.7,26.2,52.3,,,
CGUAGGUAGCUGGAGGAUAUCCGAGUGGUAACAUGAGGAUCACCCAUGUGAUGUGAGGAACAUGAGGAGAAGGCUAGCUGCCUGC [JL-ss2-3.12 JL mod] (puzzle: Same State 2),,,,23.1,37.5,38.2
CGUAGGUGGCUGGAGGAUAUUCGAGUGGUAACAUGAGGAUCACCCAUGUGUCGCGCGGUACAUGAGGAGAAGGCUGGCGGCCUGC (puzzle: Same State 2),,,,19.7,69.4,178
"CGUCGUUUGAUAGGAUAUCGCUUUACAUGAGGAUCACCCAUGUUUCCCACGCUGGUUUUUCUUUCCGAGAAGGAUUCUGAUGUU [salish99_SSNG02_r04_029] (Eterna round: R96, puzzle: Same State NG 2)",44.6,31.4,40.6,,,
"CGUCGUUUGAUAGGAUAUCGCUUUACAUGAGGAUCACCCGGGUUUACCACGCUGGUUUUUCUUUCCGAGAAGGAUUCUGAUGUU [salish99_SSNG02_r04_028] (Eterna round: R96, puzzle: Same State NG 2)",117,20.7,29,,,
CGUUCUUACUCGGUACGGUGAGUAGAGGAACAUGAGGAUCACCCAUGUAUGAGCUUUUUGCUCGUGAUUAACAGUAG [JR_SHM208a_Sub014] (puzzle: Sensor for hsa-mir-208a),,,,58,63.3,105
CUAACAACAAGUUGCAGUGUUCGUCUUUAACAUGAGGAUCACCCAUGUAAUAGCCCGGUAGAAGCGCUCGGGCCACC [Anaesrain] (puzzle: Sensor for hsa-mir-208a),,,,32.8,38.1,36.3
"CUACGCGCCGCAGGAUAUGCCGACCCGUGUUGAGCAGAAGGGCGCAACAUGAGGAUCACCCAUGUUGAAAGAGCGCAAAAUUAA [Zaesre] (Eterna round: R96, puzzle: Same State NG 1)",11.1,12.5,16,,,
CUCAAACAUGAGGAUCACCCAUGUGUUGUCAUGGGAGGAUAUCUAAGUUCGUUGUAUUCGGGAGAAGGCCUAUGUC [× ×•×ª×• ×ž×“×™× ×” × ×—×ª-10] (puzzle: Same State 1),,,,,199,
"CUCAACAACACAGGAUAUCCAGGGAAAAGAACUGGAGAAGGGUGACCAACAUGAGGAUCACCCAUGUGAUAGCUAGGCUGUCUG [Lararariso] (Eterna round: R96, puzzle: Same State NG 1)",24,191,1300,,,
"CUCAACAACACAGGAUAUCCAGGUAAAAGACCUGGAGAAGGGUGACCAACAUGAGGAUCACCCAUGUGACAGCCAGGCUGUCUG [Isbitiqu] (Eterna round: R96, puzzle: Same State NG 1)",87.8,4.41,371,,,
"CUGAAAUGUCAAGGAUAUCACGUCGAUUAGACGUGAGAAGGUGAUCUGCACAUGAGGAUCACCCAUGUGUUACAUGGAAAUCAG [Brourd's SSNG1/1-A2 mod 14] (Eterna round: R96, puzzle: Same State NG 1)",312,581,964,,,
"CUGAGCAAUCGAGGAUAUCACGUCGAUUAGACGUGAGAAGGCGAUCAUAACAUGAGGAUCACCCAUGUAUUACAUGAAGCUCAG [SSNG1/4-A2] (Eterna round: R96, puzzle: Same State NG 1)",15.3,12.9,20.3,,,
"CUGAGCGAUCAAGGAUAUCACGUCGUUUAGACGUGAGAAGGUGAUCCAUACAUGAGGAUCACCCAUGUAUAACAUGAAGCUCAG [SSNG1/8-A3] (Eterna round: R96, puzzle: Same State NG 1)",646,57,1540,,,
CUUGAUACACAUGAGGAUCACCCAUGUAUCAAGCUUUUUGCUCGUGUUAUUAUUUCCUUUAUUAGGAAUAUUAGGAA [rhiju-sequester-tail] (puzzle: Sensor for hsa-mir-208a version 2),,,,24.9,14.4,23.7
"CUUUUUAAUGCAGGAUAUGAUCAACAUGAGGAUCACCCAUGUGGUGUUGUGAGUAAGGAGAGUGAUCAGAAGGGCAUCUUCUCA [SS-NG2-LRO05] (Eterna round: R96, puzzle: Same State NG 2)",301,133,169,,,
